Reference: US20250051435A1 (INVETX, published 2025)

T1: feline IL-5 (Kingfisher Biotech; RP1152F) (feline, UniProt O77515 20-134)
T1 construct: Bought recombinant protein; also called fIL-5; fIL5
T1 sequence (looked up): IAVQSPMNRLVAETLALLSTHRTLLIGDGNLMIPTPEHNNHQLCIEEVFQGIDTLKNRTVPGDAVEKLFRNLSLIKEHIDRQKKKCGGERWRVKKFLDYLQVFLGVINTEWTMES

B1: LxH3-D3 Fab (affinity matured MtxB) (Fab, V domains shown)
VH: DVQLVESGGDLVKPGGSLRLTCVGSGFTFSNYAMSWVRQAPGEGLQWVATIGSGGHYTYHPDSVKGRFTISRDNAKNTLYLQMNSLQTEDTASYYCTRETDGYGPILDWGQGTLVTVSS
VL: DIVMTQTPLSLSVTPGEPASISCRASQSISDYLYWYLQKPGQSPRLLFNVLSQRSSGVPDRFSGSGSGTDFTLRISRVEADDVGVYYCQQGLVFPYTFGPGTKLEIK
notes: Fab from the Stage B library on MtxB; the entries named are the parent, the changed regions are told under detail
B2: LxH3-D9 Fab (affinity matured MtxB) (Fab, V domains shown)
VH: DVQLVESGGDLVKPGGSLRLTCVGSGFTFSNYAMSWVRQAPGEGLQWVATIGSGGHYTYHPDSVKGRFTISRDNAKNTLYLQMNSLQTEDTASYYCTRETDGYGPILDWGQGTLVTVSS
VL: DIVMTQTPLSLSVTPGEPASISCRASQSISDYLYWYLQKPGQSPRLIINYGSVLLSGVPDRFSGSGSGTDFTLRISRVEADDVGVYYCQQGLLFPYTFGPGTKLEIKR
notes: as for B1
B3: LxH3-F11 Fab (affinity matured MtxB) (Fab, V domains shown)
VH: DVQLVESGGDLVKPGGSLRLTCVGSGFTFSNYAMSWVRQAPGEGLQWVATIGSGGHYTYHPDSVKGRFTISRDNAKNTLYLQMNSLQTEDTASYYCTRETDGYGPILDWGQGTLVTVSS
VL: DIVMTQTPLSLSVTPGEPASISCRASQSISDYLYWYLQKPGQSPRRVFFHSSYRQSGVPDRFSGSGSGTDFTLRISRVEADDVGVYYCQQGMLFPFTFGPGTKLEIKR
notes: as for B1
B4: LxH3-E2 Fab (affinity matured MtxB) (Fab, V domains shown)
VH: DVQLVESGGDLVKPGGSLRLTCVGSGFTFSNYAMSWVRQAPGEGLQWVATIGSGGHYTYHPDSVKGRFTISRDNAKNTLYLQMNSLQTEDTASYYCTRETDGYGPILDWGQGTLVTVSS
VL: DIVMTQTPLSLSVTPGEPASISCRASQSISDYLYWYLQKPGQSPRRIFNHLSPSSSGVPDRFSGSGSGTDFTLRISRVEADDVGVYYCQQGSVFPYTFGPGTKLEIKR
notes: as for B1
B5: LxH3-G7 Fab (affinity matured MtxB) (Fab, V domains shown)
VH: DVQLVESGGDLVKPGGSLRLTCVGSGFTFSNYAMSWVRQAPGEGLQWVATIGSGGHYTYHPDSVKGRFTISRDNAKNTLYLQMNSLQTEDTASYYCTRETDGYGPILDWGQGTLVTVSS
VL: DIVMTQTPLSLSVTPGEPASISCRASQSISDYLYWYLQKPGQSPRLVFNHASPVPSGVPDRFSGSGSGTDFTLRISRVEADDVGVYYCQQGIRFPYTFGPGTKLEIKR
notes: as for B1
B6: LxH3-G10 Fab (affinity matured MtxB) (Fab, V domains shown)
VH: DVQLVESGGDLVKPGGSLRLTCVGSGFTFSNYAMSWVRQAPGEGLQWVATIGSGGHYTYHPDSVKGRFTISRDNAKNTLYLQMNSLQTEDTASYYCTRETDGYGPILDWGQGTLVTVSS
VL: DIVMTQTPLSLSVTPGEPASISCRASQSISDYLYWYLQKPGQSPRRIIFTGSQRNSGVPDRFSGSGSGTDFTLRISRVEADDVGVYYCQQGAFFPYTFGPGTKLEIKR
notes: as for B1
B7: LxH3-E8 Fab (affinity matured MtxB) (Fab, V domains shown)
VH: DVQLVESGGDLVKPGGSLRLTCVGSGFTFSNYAMSWVRQAPGEGLQWVATIGSGGHYTYHPDSVKGRFTISRDNAKNTLYLQMNSLQTEDTASYYCTRETDGYGPILDWGQGTLVTVSS
VL: DIVMTQTPLSLSVTPGEPASISCRASQSISDYLYWYLQKPGQSPRLIINQASSKLSGVPDRFSGSGSGTDFTLRISRVEADDVGVYYCQQGPLFPYTFGPGTKLEIKR
notes: as for B1
B8: LxH3-B10 Fab (affinity matured MtxB) (Fab, V domains shown)
VH: DVQLVESGGDLVKPGGSLRLTCVGSGFTFSNYAMSWVRQAPGEGLQWVATIGSGGHYTYHPDSVKGRFTISRDNAKNTLYLQMNSLQTEDTASYYCTRETDGYGPILDWGQGTLVTVSS
VL: DIVMTQTPLSLSVTPGEPASISCRASQSISDYLYWYLQKPGQSPRRLIFTGSQRASGVPDRFSGSGSGTDFTLRISRVEADDVGVYYCQQGVRFPYTFGPGTKLEIKR
notes: as for B1
B9: LxH3-F4 Fab (affinity matured MtxB) (Fab, V domains shown)
VH: DVQLVESGGDLVKPGGSLRLTCVGSGFTFSNYAMSWVRQAPGEGLQWVATIGSGGHYTYHPDSVKGRFTISRDNAKNTLYLQMNSLQTEDTASYYCTRETDGYGPMLDWGQGTLVTVSS
VL: DIVMTQTPLSLSVTPGEPASISCRASQSISDYLYWYLQKPGQSPRLLFNYGSVLASGVPDRFSGSGSGTDFTLRISRVEADDVGVYYCQQGYLFPYTFGPGTKLEIKR
notes: as for B1
B10: LxH3-D6 Fab (affinity matured MtxB) (Fab, V domains shown)
VH: DVQLVESGGDLVKPGGSLRLTCVGSGFTFSNYAMSWVRQAPGEGLQWVATIGSGGHYTYHPDSVKGRFTISRDNAKNTLYLQMNSLQTEDTASYYCTRETDGYGPILDWGQGTLVTVSS
VL: DIVMTQTPLSLSVTPGEPASISCRASQSISDYLYWYLQKPGQSPRRVIYTGSQRSSGVPDRFSGSGSGTDFTLRISRVEADDVGVYYCQQGLVFPYTFGPGTKLEIKR
notes: as for B1
B11: LxH3-A9 Fab (affinity matured MtxB) (Fab, V domains shown)
VH: DVQLVESGGDLVKPGGSLRLTCVGSGFTFSNYAMSWVRQAPGEGLQWVATIGSGGHYTYHPDSVKGRFTISRDNAKNTLYLQMNSLQTEDTASYYCTRETDGYGPLDLWGQGTLVTVSS
VL: DIVMTQTPLSLSVTPGEPASISCRASQSISDYLYWYLQKPGQSPRRIIFTGSQRNSGVPDRFSGSGSGTDFTLRISRVEADDVGVYYCQQGMVFPYTFGPGTKLEIKR
notes: as for B1
B12: LxH3-B6 Fab (affinity matured MtxB) (Fab, V domains shown)
VH: DVQLVESGGDLVKPGGSLRLTCVGSGFTFSNYAMSWVRQAPGEGLQWVATIGSGGHYTYHPDSVKGRFTISRDNAKNTLYLQMNSLQTEDTASYYCTRETDGYGPILDWGQGTLVTVSS
VL: DIVMTQTPLSLSVTPGEPASISCRASQSISDYLYWYLQKPGQSPRLIFNPLSVRRSGVPDRFSGSGSGTDFTLRISRVEADDVGVYYCQQGMVFPYTFGPGTKLEIKR
notes: as for B1
B13: LxH3-F3 Fab (affinity matured MtxB) (Fab, V domains shown)
VH: DVQLVESGGDLVKPGGSLRLTCVGSGFTFSNYAMSWVRQAPGEGLQWVATIGSGGHYTYHPDSVKGRFTISRDNAKNTLYLQMNSLQTEDTASYYCTRETDGYGPLDLWGQGTLVTVSS
VL: DIVMTQTPLSLSVTPGEPASISCRASQSISDYLYWYLQKPGQSPRLLFNSVSPTRSGVPDRFSGSGSGTDFTLRISRVEADDVGVYYCQQGVVFPYTFGPGTKLEIK
notes: as for B1
B14: LxH3-F12 Fab (affinity matured MtxB) (Fab, V domains shown)
VH: DVQLVESGGDLVKPGGSLRLTCVGSGFTFSNYAMSWVRQAPGEGLQWVATIGSGGHYTYHPDSVKGRFTISRDNAKNTLYLQMNSLQTEDTASYYCTRETDGYGPLDLWGQGTLVTVSS
VL: DIVMTQTPLSLSVTPGEPASISCRASQSISDYLYWYLQKPGQSPRLIFNPLSVRRSGVPDRFSGSGSGTDFTLRISRVEADDVGVYYCQQGYVFPYTFGPGTKLEIKR
notes: as for B1
B15: LxH3-G2 Fab (affinity matured MtxB) (Fab, V domains shown)
VH: DVQLVESGGDLVKPGGSLRLTCVGSGFTFSNYAMSWVRQAPGEGLQWVATIGSGGHYTYHPDSVKGRFTISRDNAKNTLYLQMNSLQTEDTASYYCTRETDGYGPLDLWGQGTLVTVSS
VL: DIVMTQTPLSLSVTPGEPASISCRASQSISDYLYWYLQKPGQSPRLVINWGSQRASGVPDRFSGSGSGTDFTLRISRVEADDVGVYYCQQGAIFPYTFGPGTKLEIKR
notes: as for B1
B16: LxH3-G4 Fab (affinity matured MtxB) (Fab, V domains shown)
VH: DVQLVESGGDLVKPGGSLRLTCVGSGFTFSNYAMSWVRQAPGEGLQWVATIGSGGHYTYHPDSVKGRFTISRDNAKNTLYLQMNSLQTEDTASYYCTRETDGYGPMDLWGQGTLVTVSS
VL: DIVMTQTPLSLSVTPGEPASISCRASQSISDYLYWYLQKPGQSPRRLIYFGSLLSSGVPDRFSGSGSGTDFTLRISRVEADDVGVYYCQQGLLFPYTFGPGTKLEIKR
notes: as for B1
B17: LxH3-F5 Fab (affinity matured MtxB) (Fab, V domains shown)
VH: DVQLVESGGDLVKPGGSLRLTCVGSGFTFSNYAMSWVRQAPGEGLQWVATIGSGGHYTYHPDSVKGRFTISRDNAKNTLYLQMNSLQTEDTASYYCTRETDGYGPLDLWGQGTLVTVSS
VL: DIVMTQTPLSLSVTPGEPASISCRASQSISDYLYWYLQKPGQSPRLIINPMSGQLSGVPDRFSGSGSGTDFTLRISRVEADDVGVYYCQQGLLFPYTFGPGTKLEIKR
notes: as for B1
B18: LxH3-D1 Fab (affinity matured MtxB) (Fab, V domains shown)
VH: DVQLVESGGDLVKPGGSLRLTCVGSGFTFSNYAMSWVRQAPGEGLQWVATIGSGGHYTYHPDSVKGRFTISRDNAKNTLYLQMNSLQTEDTASYYCTRETDGYGPILDWGQGTLVTVSS
VL: DIVMTQTPLSLSVTPGEPASISCRASQSISDYLYWYLQKPGQSPRRLIYFGSVRSSGVPDRFSGSGSGTDFTLRISRVEADDVGVYYCQQGLQFPYTFGPGTKLEIKR
notes: as for B1

Molecular target: T1, feline IL-5 (Kingfisher Biotech; …)
Experiment: ELISA, Fab culture supernatant on plate-coated feline IL-5, anti-feline Fab'2-HRP detection
Text: Fragments containing the pre-selected CDR pools from these libraries were randomly paired by overlap PCR to create a new library incorporating mutations throughout all targeted CDRs. The phage propagated following round 4 of selection were used for PCR amplication of LCDR2, LCDR3 and HCDR3. The PCR-amplified fragment containing the light chain and the heavy chain were ligated into a phagemid vector and transformed into E. coli. The number of transformants was approximately 2E+10. Library plasmid DNA was purified using a midi-prep purification method. Ten pg of the library plasmid DNA was transformed into E. coli for growth and propagation of the Fab phage. After overnight phage production, phage was precipitated from the culture supernatant and resuspended in blocking buffer (1% BSA/PBS). The phage were treated at 58° C. for 10 minutes to remove unstable clones prior to the selections. The input phage was incubated for 30 minutes in a blocked ELISA plate coated with feline IL-5. The ELISA plate was washed with PBS, pH 7.4 followed by acid elution of the bound phage. The output phage was then used to infect E. coli for propagation for the next round of selection. For rounds 1, 2, 3 and 4, the ELISA plates were coated with 10 μg/ml, 8 μg/ml, 5 μg/ml and 1 μg/ml, respectively. The number of washes after each round were 3, 5, 10 and 10 for rounds 1, 2, 3 and 4, respectively. Ninety-three clones from the round 4 output were grown overnight for Fab production and tested for binding to feline IL-5 in an ELISA format. For this assay, supernatants from the overnight cultures were incubated in Immulon 4 HBX high-binding plate that was coated with 10 μg/ml feline IL-5 (Kingfisher Biotech; Cat #RP1152F) and blocked with 1% bovine serum albumin in phosphate buffered saline (PBS), pH 7.4. The controls added included the MtxB clone and clone 1H3-C6 which was the top affinity clone from the first stage A1 step. The Fab binding to the feline IL-5 was detected with anti-feline Fab′₂-HRP conjugate.
The results are shown in Table 8A which compares relative Fab binding affinity to feline IL-5 by Fabs disclosed herein. IL-5 binding was detected with anti-feline Fab′₂-HRP conjugate. Differences in CDR amino acids compared to the MtxB are underlined. The data in the last column are absorbance following addition of substrate to detect the HRP conjugate.

In order of falling “fIL5 Fab (ELISA absorbance)” value:
1. B1  1.28 absorbance
2. B13  1.16 absorbance
3. B2  1.13 absorbance
4. B17  1.04 absorbance
5. B18  1.01 absorbance
6. B12  0.972 absorbance
7. B6  0.877 absorbance
8. B4  0.809 absorbance
9. B3  0.782 absorbance
10. B7  0.748 absorbance
11. B9  0.738 absorbance
12. B11  0.722 absorbance
13. B10  0.708 absorbance
14. B8  0.702 absorbance
15. B5  0.672 absorbance
16. B15  0.653 absorbance
17. B16  0.545 absorbance
18. B14  0.513 absorbance
